Earlier results on one substance are cited in publication PMC5150220.

The target in this data set is sigma32 peptide 132-144 (Escherichia coli) (UniProt P0AGB3).

DnaK, sequence (P0A6Y8 2-638): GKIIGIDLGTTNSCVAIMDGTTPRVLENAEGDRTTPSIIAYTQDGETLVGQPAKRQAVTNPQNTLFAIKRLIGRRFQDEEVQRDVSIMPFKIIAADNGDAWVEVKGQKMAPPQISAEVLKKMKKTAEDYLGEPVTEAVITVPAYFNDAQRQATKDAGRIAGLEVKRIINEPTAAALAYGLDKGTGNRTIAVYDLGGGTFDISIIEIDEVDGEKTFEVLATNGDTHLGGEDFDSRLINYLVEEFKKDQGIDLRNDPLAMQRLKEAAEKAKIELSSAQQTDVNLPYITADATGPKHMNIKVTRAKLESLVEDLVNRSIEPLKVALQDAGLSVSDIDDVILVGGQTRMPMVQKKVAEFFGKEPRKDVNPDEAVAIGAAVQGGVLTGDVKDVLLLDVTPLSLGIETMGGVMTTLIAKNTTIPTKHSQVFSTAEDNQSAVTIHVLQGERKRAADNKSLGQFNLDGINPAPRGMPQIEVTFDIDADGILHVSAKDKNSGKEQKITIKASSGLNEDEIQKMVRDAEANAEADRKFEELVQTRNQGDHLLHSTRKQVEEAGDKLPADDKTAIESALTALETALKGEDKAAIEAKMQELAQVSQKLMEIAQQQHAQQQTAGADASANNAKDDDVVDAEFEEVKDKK

With DnaK (from UniProt P0A6Y8), the Kd was 78 nM.
